The record followed here is patent US20170152290A1.

This assay has as its target sLRP1-CIV (cluster IV of LRP1 fused to the constant region of a human IgG1) (human). Description: SPR (Biacore X), sLRP1-CIV immobilised on CM5 chip, peptide at 20 µM; RU observed at 160 s. For orientation: SPR reads the build-up and loss of mass on a sensor chip optically.

With CSNIVIGIGDKALKINACKKK (modifications not checked) [peptide HDIII3CLW-], the RU (at 160 s) came out at 192 RU. Next, SSNIVIGIGDKALKINWSKKK (modifications not checked) [peptide HDIII3CLC-]: 38.2 RU.
